# From patent US20230012273A1 (Boehringer Ingelheim, published 2023)
# Positions count from the first letter of the chain named.
# T1: cynomolgus SIRPα (EGM_02252) extracellular domain + His-tag (cynomolgus monkey)
# T1 construct: SPR analyte; also called CySIRPα EGM_02252; cynoSIRPα; not shown: His-tag
# T1 chain: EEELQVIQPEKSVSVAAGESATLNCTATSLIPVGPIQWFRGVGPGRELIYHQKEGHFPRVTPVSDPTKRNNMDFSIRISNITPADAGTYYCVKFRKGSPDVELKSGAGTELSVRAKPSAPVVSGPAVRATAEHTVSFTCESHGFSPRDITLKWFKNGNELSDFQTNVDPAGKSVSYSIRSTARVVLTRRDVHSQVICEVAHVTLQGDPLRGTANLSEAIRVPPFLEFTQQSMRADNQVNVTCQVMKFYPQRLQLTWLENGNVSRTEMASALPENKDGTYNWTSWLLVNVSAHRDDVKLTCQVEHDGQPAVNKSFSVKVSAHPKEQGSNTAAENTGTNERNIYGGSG
# T2: cynomolgus SIRPβ1 (XP_005568598) extracellular domain + His-tag (cynomolgus monkey)
# T2 construct: SPR analyte; also called Cyno SIRPβ1 XP_005568598; cynoSIRPβ1; not shown: His-tag
# T2 chain: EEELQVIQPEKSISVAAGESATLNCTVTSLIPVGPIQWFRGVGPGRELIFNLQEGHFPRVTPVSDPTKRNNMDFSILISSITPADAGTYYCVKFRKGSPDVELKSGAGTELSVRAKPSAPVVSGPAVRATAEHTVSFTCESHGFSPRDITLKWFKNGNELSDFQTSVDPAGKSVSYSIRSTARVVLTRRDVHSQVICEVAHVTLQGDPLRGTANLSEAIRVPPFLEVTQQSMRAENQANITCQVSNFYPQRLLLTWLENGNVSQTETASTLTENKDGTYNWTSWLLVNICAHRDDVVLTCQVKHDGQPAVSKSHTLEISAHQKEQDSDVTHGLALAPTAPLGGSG
# T3: cynomolgus SIRPγ (XP_005568591) extracellular domain + His-tag (cynomolgus monkey, UniProt Q9P1W8 29-359 (human entry))
# T3 construct: SPR analyte; also called Cyno SIRPγ XP_005568591; cynoSIRPγ; not shown: His-tag
# T3 chain: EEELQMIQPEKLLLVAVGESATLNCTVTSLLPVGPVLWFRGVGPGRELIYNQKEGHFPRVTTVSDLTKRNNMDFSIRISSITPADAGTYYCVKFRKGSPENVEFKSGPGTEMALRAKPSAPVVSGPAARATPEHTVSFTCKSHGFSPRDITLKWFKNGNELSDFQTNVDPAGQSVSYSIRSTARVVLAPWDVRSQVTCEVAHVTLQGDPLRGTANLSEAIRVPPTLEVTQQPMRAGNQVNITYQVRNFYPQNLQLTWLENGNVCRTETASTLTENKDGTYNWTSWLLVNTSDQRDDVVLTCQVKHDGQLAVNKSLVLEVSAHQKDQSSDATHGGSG
# T4: cynomolgus SIRPβ1v3 (XP_005568593) extracellular domain + His-tag (cynomolgus monkey)
# T4 construct: SPR analyte; also called Cyno SIRPβ1v3 XP_005568593; cynoSIRPβ1v3; not shown: His-tag
# T4 chain: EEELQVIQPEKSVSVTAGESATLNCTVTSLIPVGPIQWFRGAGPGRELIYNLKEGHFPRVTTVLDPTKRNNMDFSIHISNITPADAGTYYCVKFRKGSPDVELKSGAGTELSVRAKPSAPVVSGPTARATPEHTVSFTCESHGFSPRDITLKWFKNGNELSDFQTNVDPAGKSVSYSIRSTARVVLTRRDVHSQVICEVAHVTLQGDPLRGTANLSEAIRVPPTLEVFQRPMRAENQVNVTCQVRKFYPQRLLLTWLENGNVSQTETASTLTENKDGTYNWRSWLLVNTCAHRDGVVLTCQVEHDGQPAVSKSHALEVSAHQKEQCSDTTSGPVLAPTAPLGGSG
# B1: Antibody E1 (antibody, human IgG1, kappa, L234A L235A, V domains shown)
# VH: QVQLQESGPGLVRPSETLSLTCTVSGGSIRNYYWSWIRQPPGKGLEWIGFIYYNGRTFYNPSLKSRVTISLDMSINQFSLKMTSVTAADTAVYYCARVRAYSGIGLDGTDVWGQGTTVTVSS
# VL: DIVMTQSPLSLPVTPGEPASISCKSSQSLLYSNGYAYLDWYLQRPGQSPQLLIYQGSNRASGVPDRFSGSGSGTDFTLKISRVEAEDVGVFYCMQALQTPLTFGGGTKVEIKR
# B2: Antibody E2 (antibody, human IgG1, kappa, L234A L235A, V domains shown)
# VH: B1 VH
# VL: B1 VL with Q55L, F91Y
# B3: Antibody E3 (antibody, human IgG1, kappa, L234A L235A, V domains shown)
# VH: B1 VH with I75K
# VL: B1 VL
# B4: Antibody E7 (antibody, human IgG1, kappa, L234A L235A, V domains shown)
# VH: B1 VH with M73T, I75K
# VL: B1 VL
# B5: Antibody E8 (antibody, human IgG1, kappa, L234A L235A, V domains shown)
# VH: B1 VH with I48M, Y53D, I75M
# VL: B1 VL
# B6: Antibody E6 (antibody, human IgG1, kappa, L234A L235A, V domains shown)
# VH: B1 VH with M73K, I75K
# VL: B1 VL with Q55L, F91Y
# B7: Antibody E5 (antibody, human IgG1, kappa, L234A L235A, V domains shown)
# VH: B1 VH with M73K, I75K
# VL: B1 VL
# B8: Antibody E3 (antibody, human IgG1, kappa, L234A L235A, V domains shown)
# VH: B1 VH with I75K
# VL: B1 VL
# B9: Antibody E16 (antibody, human IgG1, kappa, L234A L235A, V domains shown)
# VH: B1 VH with M73T, I75K
# VL: B1 VL with G34A, A36N, Q55L, F91Y
# B10: Antibody E10 (antibody, human IgG1, kappa, L234A L235A, V domains shown)
# VH: B1 VH with M73T, I75K
# VL: B1 VL with Q55L, F91Y
# B11: Antibody E1 (antibody, human IgG1, kappa, L234A L235A, V domains shown)
# VH: B1 VH
# VL: B1 VL
# B12: Antibody E11 (antibody, human IgG1, kappa, L234A L235A, V domains shown)
# VH: B1 VH with I48M, Y53D, I75M
# VL: B1 VL with Q55L, F91Y
# B13: Antibody E4 (antibody, human IgG1, kappa, L234A L235A, V domains shown)
# VH: B1 VH with I75K
# VL: B1 VL with Q55L, F91Y
# B14: Antibody E (antibody, human IgG1, kappa, L234A L235A)
# heavy: not shown
# light: DIVMTQSPLSLPVTPGEPASISCKSSQSLLYSNGYNYLDWYLQRPGQSPQLLIYLGSNRASGVPDRFSGSGSGTDFTLKISRVEAEDVGVFYCMQALQTPLTFGGGTKVEIKRTVAAPSVFIFPPSDEQLKSGTASVVCLLNNFYPREAKVQWKVDNALQSGNSQESVTEQDSKDSTYSLSSTLTLSKADYEKHKVYACEVTHQGLSSPVTKSFNRGEC
# Molecular target: T1, cynomolgus SIRPα (EGM_02252) …
# Test: SPR
# Experimental: (§1) The binding affinity of anti-SIRPα antibodies to the various SIRPα analytes is determined by surface plasmon resonance (SPR) using a ProteOn XPR36 (Bio-Rad). The running buffer for this experiment and all dilutions (except where stated) are done in 1×HBS-EP+. […] The sensorchip is deactivated with 1M ethanolamine HCl for 420 sec at a flowrate of 10 μl/min.
# (§2) The analyte is injected over the captured antibody for 300 sec at a flowrate of 30 μl/min. The dissociation is done for 600 sec. Two-fold serial dilutions of each SIRP protein (Extracellular Domain+His-Tag) are injected as analyte with the highest concentrations indicated in table 36 below.
row,binding result,Binder
1,no binding (tested: 1000 nM),B1
2,no binding (tested: 1000 nM),B2
3,no binding (tested: 1000 nM),B3
4,no binding (tested: 1000 nM),B4
5,no binding (tested: 1000 nM),B5
6,no binding (tested: 1000 nM),B6
7,no binding (tested: 1000 nM),B7

# Molecular target: T2, cynomolgus SIRPβ1 (XP_005568598) …
# Test: SPR
# Experimental: as §1, §2
row,binding result,Binder
1,no binding (tested: 1000 nM),B1
2,no binding (tested: 1000 nM),B2
3,no binding (tested: 1000 nM),B3
4,no binding (tested: 1000 nM),B4
5,no binding (tested: 1000 nM),B5
6,no binding (tested: 1000 nM),B6
7,no binding (tested: 1000 nM),B7

# Molecular target: T3, cynomolgus SIRPγ (XP_005568591) …
# Test: SPR
# Experimental: as §1, §2
row,binding result,Binder
1,no binding (tested: 1000 nM),B1
2,no binding (tested: 1000 nM),B2
3,no binding (tested: 1000 nM),B3
4,no binding (tested: 1000 nM),B4
5,no binding (tested: 1000 nM),B5
6,no binding (tested: 1000 nM),B6
7,no binding (tested: 1000 nM),B7

# Molecular target: T5, human SIRPαV1 extracellular domain + His-tag (NP_542970.1) (human, UniProt P78324 31-373)
# T5 construct: also called hSIRPαV1; HuSIRPαV1
# Test: SPR, Ab captured, ECD-His analyte
# Experimental: as §1, §2
# T5 sequence (P78324 other isoform, or with tags, fused parts or gaps): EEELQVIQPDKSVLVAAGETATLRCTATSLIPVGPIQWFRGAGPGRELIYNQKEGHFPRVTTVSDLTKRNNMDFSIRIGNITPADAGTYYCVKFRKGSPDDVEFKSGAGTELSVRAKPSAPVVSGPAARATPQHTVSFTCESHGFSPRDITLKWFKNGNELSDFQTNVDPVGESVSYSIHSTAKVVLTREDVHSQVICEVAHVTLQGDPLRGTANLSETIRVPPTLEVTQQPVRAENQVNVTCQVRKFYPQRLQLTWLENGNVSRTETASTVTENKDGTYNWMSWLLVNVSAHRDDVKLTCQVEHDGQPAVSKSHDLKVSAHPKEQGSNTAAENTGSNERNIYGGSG
row,Kd,Binder
1,0.964 nM,B8
2,2.15 nM,B9
3,1.23 nM,B10
4,0.723 nM,B11
5,1.41 nM,B12
6,0.988 nM,B13

# Molecular target: T6, human SIRPαV2 extracellular domain + His-tag (CAA71403.1) (human, UniProt P78324 31-373)
# T6 construct: also called hSIRPαV2; HuSIRPαV2
# Test: SPR, Ab captured, ECD-His analyte
# Experimental: as §1, §2
# T6 sequence (P78324 other isoform, or with tags, fused parts or gaps): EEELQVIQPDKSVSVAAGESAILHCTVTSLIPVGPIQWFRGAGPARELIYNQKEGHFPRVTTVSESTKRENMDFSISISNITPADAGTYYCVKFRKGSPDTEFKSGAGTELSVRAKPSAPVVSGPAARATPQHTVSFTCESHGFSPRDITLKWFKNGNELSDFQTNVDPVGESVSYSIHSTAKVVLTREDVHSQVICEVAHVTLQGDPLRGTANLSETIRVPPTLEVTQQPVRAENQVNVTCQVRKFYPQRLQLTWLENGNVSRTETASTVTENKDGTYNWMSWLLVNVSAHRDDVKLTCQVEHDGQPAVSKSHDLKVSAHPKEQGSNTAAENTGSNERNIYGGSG
row,Kd,Binder
1,0.775 nM,B8
2,1.93 nM,B9
3,1.2 nM,B10
4,0.63 nM,B11
5,0.568 nM,B12
6,0.824 nM,B13

# Molecular target: T7, human SIRPγ extracellular domain + His-tag (NP_061026.2) (human, UniProt Q9P1W8 29-360)
# T7 construct: also called hSIRPγ; HuSIRPγ
# Test: SPR, Ab captured, ECD-His analyte
# Experimental: as §1, §2
# T7 sequence (Q9P1W8 29-360): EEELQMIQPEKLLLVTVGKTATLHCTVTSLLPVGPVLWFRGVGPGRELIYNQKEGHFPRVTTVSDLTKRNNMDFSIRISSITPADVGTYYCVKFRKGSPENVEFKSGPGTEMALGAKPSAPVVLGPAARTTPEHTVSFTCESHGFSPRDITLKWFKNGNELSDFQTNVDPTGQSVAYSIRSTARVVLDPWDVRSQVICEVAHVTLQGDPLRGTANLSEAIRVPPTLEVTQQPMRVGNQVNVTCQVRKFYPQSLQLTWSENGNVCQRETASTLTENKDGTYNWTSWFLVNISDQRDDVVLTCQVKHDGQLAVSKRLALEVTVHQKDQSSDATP
row,binding result,Binder
1,no binding (tested: 1000 nM),B8
2,no binding (tested: 1000 nM),B9
3,no binding (tested: 1000 nM),B10
4,no binding (tested: 1000 nM),B11
5,no binding (tested: 1000 nM),B12
6,no binding (tested: 1000 nM),B13

# Molecular target: T4, cynomolgus SIRPβ1v3 (XP_005568593) …
# Test: SPR, antibody captured, ECD-His analyte
# Experimental: as §1, §2
row,Kd,Binder
1,10.8 nM,B1
2,12.4 nM,B2
3,10.7 nM,B3
4,13.1 nM,B4
5,10.8 nM,B5
6,23.9 nM,B6
7,22.6 nM,B7

# Molecular target: T8, Human SIRPαV1 (NP_542970.1), Extracellular Domain + His-Tag (human, UniProt P78324 31-373)
# T8 construct: also called huSIRPαV1; hSIRPαV1; not shown: His-Tag
# Test: SPR, antibody captured on Protein A/G, ECD-His analyte, 1:1 fit
# Experimental: (§3) The binding kinetics of anti-SIRPα antibodies to various SIRPα analytes are determined by surface plasmon resonance (SPR) using a Biacore 8K+(Cytiva). 1×HBS-EP+(Cytiva) is used as running buffer and for all the dilutions unless stated otherwise. The Series S CM5 sensorchip is activated with a 1:1 mixture of 0.1 M NHS (N-hydroxysuccinimide) and 0.4 M EDC (1-Ethyl-3-(3-dimethylaminopropyl) carbodiimide hydrochloride) for 420 seconds at a flow rate of 10 μl/min and immobilized with Protein A/G (Thermo Scientific, 10 μg/ml in 10 mM acetate pH 4.5) for 420 seconds at a flowrate of 10 μl/min resulting in approximately 3000 RU of Protein A/G on the surface. The sensorchip is then deactivated with 1 M ethanolamine HCl pH 8.5 for 420 seconds at a flowrate of 10 μl/min.
# (§4) Antibodies (approximately 1 ug/ml) are captured on the Protein A/G surface for 60 seconds at a flowrate of 10 μl/min resulting in capture levels of approximately 240 RU. Dilutions of each SIRP protein (Extracellular Domain+His-Tag, with the concentrations as indicated) are injected as analytes over the captured antibody for 300 seconds of association at a flowrate of 30 μl/min, followed by a dissociation for 600 seconds.
# (§5) The above procedures are used to measure binding properties of antibodies of the present disclosure. For each analyte used, the highest concentration was as indicated in Example 3 (see Table 36).
row,Kd,Binder
1,0.43 nM,B14

# Molecular target: T9, Human SIRPαV2 (CAA71403.1), Extracellular Domain + His-Tag (human, UniProt P78324 31-373)
# T9 construct: also called huSIRPαV2; hSIRPαV2; not shown: His-Tag
# Test: as above
# Experimental: as §3, §4, §5
row,Kd,Binder
1,0.33 nM,B14
